In US20050260634A1:

Legend:
c-Myc [1] = target: c-Myc (UniProt P01106); test: flow cytometry, fixed and permeabilized JEG3 cells, negative control
c-Myc [2] = target: c-Myc (UniProt P01106); test: flow cytometry, fixed and permeabilized HCT15 cells, negative control
c-Myc [3] = target: c-Myc (UniProt P01106); test: flow cytometry, fixed and permeabilized HCT116 cells, negative control (row shifted one column to the left)

Chain of UniProt P01106 (P01106 whole entry): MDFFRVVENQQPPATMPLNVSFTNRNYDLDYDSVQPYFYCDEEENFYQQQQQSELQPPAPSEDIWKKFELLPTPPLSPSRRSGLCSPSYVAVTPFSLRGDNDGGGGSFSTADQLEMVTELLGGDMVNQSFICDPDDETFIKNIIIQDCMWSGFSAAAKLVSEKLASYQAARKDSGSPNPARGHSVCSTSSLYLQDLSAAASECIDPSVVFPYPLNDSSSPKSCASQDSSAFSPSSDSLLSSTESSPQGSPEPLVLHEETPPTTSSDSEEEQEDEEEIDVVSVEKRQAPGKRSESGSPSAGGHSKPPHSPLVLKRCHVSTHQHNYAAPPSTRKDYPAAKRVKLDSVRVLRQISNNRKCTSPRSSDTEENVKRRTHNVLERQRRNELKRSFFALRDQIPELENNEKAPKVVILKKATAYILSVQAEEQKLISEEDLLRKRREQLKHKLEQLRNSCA

non-immunized rabbit immunoglobulins (antibody)
percentage of positive cells above the flow cytometry threshold (c-Myc [1]): 1.1% | percentage of positive cells above the flow cytometry threshold (c-Myc [2]): 1.6% | percentage of positive cells above the flow cytometry threshold (c-Myc [3]): 1.5%
